Reference: FireProtDB (doi:10.1021/bi00017a003)

B1: Subtilisin-chymotrypsin inhibitor-2A, P01053 (parent)
chain: MSSVEKKPEGVNTGAGDRHNLKTEWPELVGKSVEEAKKVILQDKPEAQIIVLPVGTIVTMEYRIDRVRLFVDKLDNIAQVPRVG

Variants of: B1
Details: Hordeum vulgare; pH 6.3; 25 °C; GdnHCl; Fluorescence; MES 50 mM; structure 2CI2; whole UniProt chain shown

Variant | ddG of mutation (higher = less stable) [kcal/mol] | denaturant m value [kcal/mol/M] | denaturant midpoint (higher = more stable) [M]
T23A | 0.85 | 1.83 | 3.56
T23G | 1.16 | 1.95 | 3.4
T23V | 0.32 | 1.67 | 3.83
I50V | -0.08 | 1.77 | 4.04
I50G | 3.52 | 2.13 | 2.19
I50A | 2.12 | 2.22 | 3.91
A78G | 1.88 | 2.19 | 3.03
V54G | 2.43 | 2 | 2.75
V54T | 1.03 | 1.65 | 3.47
V83T | 1.15 | 1.79 | 3.41
V83G | 3.5 | 2.1 | 2.2
V83A | 1.45 | 1.95 | 3.25
V80G | 3.24 | 2.61 | 2.33
V80T | 0.38 | 1.63 | 3.8
V80A | 1.51 | 1.92 | 3.22
